Data: patent US20260242478A1 (published 2026)

Experiments:
[1] = biological target: T1, Anti-CD28 Fab (SEQ ID NOs: 696, 697); experiment: phage ELISA; clonal phage on plate-captured biotinylated anti-CD28 Fab, anti-M13 HRP detection
T1 construct: Biotinylated and captured on neutravidin coated plates in the phage ELISA
T1 sequence (VH, as listed by the source, chain 1 of 2): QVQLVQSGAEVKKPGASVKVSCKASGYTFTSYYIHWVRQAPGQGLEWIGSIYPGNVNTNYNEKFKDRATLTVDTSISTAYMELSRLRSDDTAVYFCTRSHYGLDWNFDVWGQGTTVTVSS
T1 sequence (VL, as listed by the source, chain 2 of 2): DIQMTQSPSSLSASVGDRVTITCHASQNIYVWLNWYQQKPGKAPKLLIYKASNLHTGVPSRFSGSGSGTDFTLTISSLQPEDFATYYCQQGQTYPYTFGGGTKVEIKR
Procedure: (§1) After panning, phage infected bacteria were plated out and colonies picked into 96 well blocks. Clonal phage was then amplified and separated from bacterial cells via centrifugation.
(§2) Clonal phage were harvested as crude supematants and screened via standard ELISAs. […] Prior to the addition of clonal phage, wells were incubated with blocking buffer and CD28 antigen or blocking buffer alone. Without washing or aspirating, clonal phage supematants were then added to the wells and incubated for a short time. Wells were then washed followed by detection of bound phage using a horse radish conjugated anti-M13 antibody. Clonal phage of interest were then sent for sequence analysis.

[2] = biological target: T1, Anti-CD28 Fab (SEQ ID NOs: 696, 697); experiment: phage ELISA; clonal phage on plate-captured anti-CD28 Fab pre-incubated with CD28 antigen as competitor
Procedure: as §1, §2

[3] = biological target: T2, Anti-CD28 Fab (SEQ ID NOs: 696, 697); experiment: phage binding ELISA on captured Fab; competitor: CD28 antigen pre-incubated in the wells
T2 construct: Biotinylated and captured on neutravidin coated plates in the phage ELISA
T2 sequence (VH, as listed by the source, chain 1 of 2): as the sequence (VH, as listed by the source, chain 1 of 2) above
T2 sequence (VL, as listed by the source, chain 2 of 2): as the sequence (VL, as listed by the source, chain 2 of 2) above
Procedure: as §1, §2

[4] = biological target: Anti-CD28 Fab (SEQ ID NOs: 696, 697); experiment: phage binding ELISA on Fab coated plate; CD28 antigen as competitor
Target sequence in this assay (VH, as listed by the source, chain 1 of 2): as the sequence (VH, as listed by the source, chain 1 of 2) above
Target sequence in this assay (VL, as listed by the source, chain 2 of 2): as the sequence (VL, as listed by the source, chain 2 of 2) above
Procedure: as §1, §2

[5] = biological target: Anti-CD28 Fab (SEQ ID NOs: 696, 697); experiment: phage binding ELISA; biotinylated Fab on neutravidin plate, anti-M13 HRP detection
Target sequence in this assay (VH, as listed by the source, chain 1 of 2): as the sequence (VH, as listed by the source, chain 1 of 2) above
Target sequence in this assay (VL, as listed by the source, chain 2 of 2): as the sequence (VL, as listed by the source, chain 2 of 2) above
Procedure: as §1, §2

[6] = biological target: T3, Anti-CD28 Fab (SEQ ID NOs: 696, 697); experiment: phage ELISA; biotinylated anti-CD28 Fab on neutravidin plate, clonal phage supernatant, anti-M13 HRP detection;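 also: crude supernatants of single phage clones picked after panning were screened for binding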
T3 construct: In the phage ELISA the Fab was biotinylated and captured on neutravidin coated plates
T3 sequence (VH, as listed by the source, chain 1 of 2): as the sequence (VH, as listed by the source, chain 1 of 2) above
T3 sequence (VL, as listed by the source, chain 2 of 2): as the sequence (VL, as listed by the source, chain 2 of 2) above

[7] = biological target: T3, Anti-CD28 Fab (SEQ ID NOs: 696, 697); experiment: phage ELISA as above with wells pre-incubated with CD28 antigen as competitor
Procedure: as §1, §2

[8] = biological target: T4, Anti-CD28 Fab (SEQ ID NOs: 696, 697); experiment: phage ELISA on captured anti-CD28 Fab, wells pre-incubated with CD28 antigen as competitor;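 also: crude clonal phage supernatants added without washing, bound phage read out by HRP-coupled anti-M13 antibody, reference wells given blocking buffer only instead of CD28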
T4 construct: In the phage ELISA the Fab was biotinylated and captured on neutravidin coated plates
T4 sequence (VH, as listed by the source, chain 1 of 2): as the sequence (VH, as listed by the source, chain 1 of 2) above
T4 sequence (VL, as listed by the source, chain 2 of 2): as the sequence (VL, as listed by the source, chain 2 of 2) above
Procedure: as §1, §2

[9] = biological target: T4, Anti-CD28 Fab (SEQ ID NOs: 696, 697); experiment: phage ELISA, clonal phage on biotinylated anti-CD28 Fab captured on neutravidin plates;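 also: crude clonal phage supernatants added to wells pretreated with CD28 antigen or with blocking buffer only, bound phage detected by HRP-linked anti-M13 antibody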
Procedure: as §1, §2

B1: Phage-1005 (peptide)
peptide: YCDGHLPEYLAKCL
notes: tested as crude clonal phage supernatant
In the case of B1, the “Phage binding ELISA, Anti-CD28 Fab signal” value [1] is reported as 1.52 and the “Phage binding ELISA, Anti-CD28 Fab signal in the presence of CD28” value [2] is reported as 0.06.

B2: Phage-1006 (peptide)
peptide: YCDGHLAVYMAKCL
notes: as for B1
B2 was tested, and the “Phage binding ELISA, Anti-CD28 Fab signal” value [1] was 1.52 and the “Phage binding ELISA, Anti-CD28 Fab signal in the presence of CD28” value [2] was 0.08.

B3: Phage-1007 (peptide)
peptide: YCAGHLPVYMDKCL
notes: as for B1
With B3 the “Phage binding ELISA, Anti-CD28 Fab signal” value [1] was 1.52 and the “Phage binding ELISA, Anti-CD28 Fab signal in the presence of CD28” value [2] was 0.08.

B4: Phage-1008 (peptide)
peptide: YCEGHSAMYIWKCL
notes: as for B1
B4 was tested, and the “Phage binding ELISA, Anti-CD28 Fab signal” value [1] was 1.52 and the “Phage binding ELISA, Anti-CD28 Fab signal in the presence of CD28” value [2] was 0.1.

B5: Phage-1009 (peptide)
peptide: YCAGHLEEYMWKCL
notes: as for B1
In the case of B5, the “Phage binding ELISA, Anti-CD28 Fab signal” value [1] is reported as 1.51 and the “Phage binding ELISA, Anti-CD28 Fab signal in the presence of CD28” value [2] is reported as 0.08.

B6: Phage-1011 (Peptide-87 library peptide, SEQ ID NO: 1327) (peptide)
peptide: YCDGHSAEYLSKCL
notes: as for B1
With B6 the “Anti-CD28 Fab signal in the presence of CD28 (phage binding ELISA)” value [3] was 0.07.

B7: Phage-1015 (Peptide-87 library peptide, SEQ ID NO: 1331) (peptide)
peptide: YCDGHKAEYMQKCL
notes: as for B1
With B7 the “Anti-CD28 Fab signal in the presence of CD28 (phage binding ELISA)” value [3] was 0.06.

B8: Phage-1016 (Peptide-87 library peptide, SEQ ID NO: 1332) (peptide)
peptide: YCDGHSPQYIQKCL
notes: as for B1
B8 was tested, and the “Anti-CD28 Fab signal in the presence of CD28 (phage binding ELISA)” value [3] was 0.07.

B9: Phage-1017 (Peptide-87 library peptide, SEQ ID NO: 1333) (peptide)
peptide: YCSGHLPQYLEKCL
notes: as for B1
B9 was tested, and the “Anti-CD28 Fab signal in the presence of CD28 (phage binding ELISA)” value [3] was 0.31.

B10: Phage-1018 (Peptide-87 library peptide, SEQ ID NO: 1334) (peptide)
peptide: YCDGHHKEYLLKCL
notes: as for B1
B10 was tested, and the “Anti-CD28 Fab signal in the presence of CD28 (phage binding ELISA)” value [3] was 0.06.

B11: Phage-1019 (Peptide-87 library peptide, SEQ ID NO: 1335) (peptide)
peptide: YCDGHLALHMKKCL
notes: as for B1
B11 was tested, and the “Anti-CD28 Fab signal in the presence of CD28 (phage binding ELISA)” value [3] was 0.08.

For YCDGHLPEYITKCL [Phage-1023], the “Anti-CD28 Fab signal in the presence of CD28” value [4] was 0.06 and the “Anti-CD28 Fab (SEQ ID NOs: 696, 697) signal” value [5] was 1.49.

YCEGHRPEYMQKCV [Phage-1024] was tested, and the “Anti-CD28 Fab signal in the presence of CD28” value [4] was 0.09 and the “Anti-CD28 Fab (SEQ ID NOs: 696, 697) signal” value [5] was 1.48.

For YCAGHTVENMAKCL [Phage-1025], the “Anti-CD28 Fab signal in the presence of CD28” value [4] was 0.07 and the “Anti-CD28 Fab (SEQ ID NOs: 696, 697) signal” value [5] was 1.48.

YCEGHVLEYRGKCD [Phage-1026] was tested, and the “Anti-CD28 Fab signal in the presence of CD28” value [4] was 0.09 and the “Anti-CD28 Fab (SEQ ID NOs: 696, 697) signal” value [5] was 1.48.

With YCDGHVAEYRHKCL [Phage-1027] the “Anti-CD28 Fab signal in the presence of CD28” value [4] was 0.06 and the “Anti-CD28 Fab (SEQ ID NOs: 696, 697) signal” value [5] was 1.47.

With YCEGHLDQYMTKCL [Phage-1028] the “Anti-CD28 Fab signal in the presence of CD28” value [4] was 0.08 and the “Anti-CD28 Fab (SEQ ID NOs: 696, 697) signal” value [5] was 1.47.

In the case of YCAGHTQEYIEKCL [Phage-1029], the “Anti-CD28 Fab signal in the presence of CD28” value [4] is reported as 0.06 and the “Anti-CD28 Fab (SEQ ID NOs: 696, 697) signal” value [5] is reported as 1.47.

In the case of YCDGHLAIYIGKCL [Phage-1030], the “Anti-CD28 Fab signal in the presence of CD28” value [4] is reported as 0.08 and the “Anti-CD28 Fab (SEQ ID NOs: 696, 697) signal” value [5] is reported as 1.47.

For YCDGHLEIYMSKCL [Phage-1031], the “Anti-CD28 Fab signal in the presence of CD28” value [4] was 0.08 and the “Anti-CD28 Fab (SEQ ID NOs: 696, 697) signal” value [5] was 1.46.

For YCDGHLLEYMSKCL [Phage-1032], the “Anti-CD28 Fab signal in the presence of CD28” value [4] was 0.09 and the “Anti-CD28 Fab (SEQ ID NOs: 696, 697) signal” value [5] was 1.46.

YCDGHSLEYMVKCL [Phage-1033] was tested, and the “Anti-CD28 Fab signal in the presence of CD28” value [4] was 0.06 and the “Anti-CD28 Fab (SEQ ID NOs: 696, 697) signal” value [5] was 1.46.

In the case of YCEGHSLEHIAKCL [Phage-1034], the “Anti-CD28 Fab signal in the presence of CD28” value [4] is reported as 0.07 and the “Anti-CD28 Fab (SEQ ID NOs: 696, 697) signal” value [5] is reported as 1.46.

In the case of YCEGHTPVYMPKCL [Phage-1035], the “Anti-CD28 Fab signal in the presence of CD28” value [4] is reported as 0.06 and the “Anti-CD28 Fab (SEQ ID NOs: 696, 697) signal” value [5] is reported as 1.46.

For YCQGHIEPYLAKCL (Tested as clonal phage supernatant) [Phage-1036], the “Anti-CD28 Fab signal (phage binding ELISA)” value [6] was 1.46 and the “Anti-CD28 Fab signal in the presence of CD28 (phage binding ELISA)” value [7] was 0.05.

YCDGHLAIYMWKCL (Tested as clonal phage supernatant) [Phage-1037] was tested, and the “Anti-CD28 Fab signal (phage binding ELISA)” value [6] was 1.45 and the “Anti-CD28 Fab signal in the presence of CD28 (phage binding ELISA)” value [7] was 0.09.

For YCDGHAEEYMAKCL (Tested as clonal phage supernatant) [Phage-1038], the “Anti-CD28 Fab signal (phage binding ELISA)” value [6] was 1.45 and the “Anti-CD28 Fab signal in the presence of CD28 (phage binding ELISA)” value [7] was 0.06.

In the case of YCDGHSLQYMSKCL (Tested as clonal phage supernatant) [Phage-1039], the “Anti-CD28 Fab signal (phage binding ELISA)” value [6] is reported as 1.45 and the “Anti-CD28 Fab signal in the presence of CD28 (phage binding ELISA)” value [7] is reported as 0.06.

In the case of YCEGHLPQYMTKCI (Tested as clonal phage supernatant) [Phage-1040], the “Anti-CD28 Fab signal (phage binding ELISA)” value [6] is reported as 1.44 and the “Anti-CD28 Fab signal in the presence of CD28 (phage binding ELISA)” value [7] is reported as 0.08.

With YCAGHLPQYIQKCL (Tested as clonal phage supernatant) [Phage-1041] the “Anti-CD28 Fab signal (phage binding ELISA)” value [6] was 1.44 and the “Anti-CD28 Fab signal in the presence of CD28 (phage binding ELISA)” value [7] was 0.07.

YCEGHLAIYQKKCL (Tested as clonal phage supernatant) [Phage-1042] was tested, and the “Anti-CD28 Fab signal (phage binding ELISA)” value [6] was 1.44 and the “Anti-CD28 Fab signal in the presence of CD28 (phage binding ELISA)” value [7] was 0.06.

With YCEGHAVEYMAKCL (Tested as clonal phage supernatant) [Phage-1043] the “Anti-CD28 Fab signal (phage binding ELISA)” value [6] was 1.44 and the “Anti-CD28 Fab signal in the presence of CD28 (phage binding ELISA)” value [7] was 0.07.

For YCEGHLPIYMEKCL (Tested as clonal phage supernatant) [Phage-1044], the “Anti-CD28 Fab signal (phage binding ELISA)” value [6] was 1.44 and the “Anti-CD28 Fab signal in the presence of CD28 (phage binding ELISA)” value [7] was 0.07.

YCEGHSMEYIQKCL (Tested as clonal phage supernatant) [Phage-1045] was tested, and the “Anti-CD28 Fab signal (phage binding ELISA)” value [6] was 1.44 and the “Anti-CD28 Fab signal in the presence of CD28 (phage binding ELISA)” value [7] was 0.07.

With YCEGHSQEYMAKCL (Tested as clonal phage supernatant) [Phage-1046] the “Anti-CD28 Fab signal (phage binding ELISA)” value [6] was 1.44 and the “Anti-CD28 Fab signal in the presence of CD28 (phage binding ELISA)” value [7] was 0.06.

In the case of YCDGHLPEYMNQCL (Tested as clonal phage supernatant) [Phage-1047], the “Anti-CD28 Fab signal (phage binding ELISA)” value [6] is reported as 1.44 and the “Anti-CD28 Fab signal in the presence of CD28 (phage binding ELISA)” value [7] is reported as 0.07.

YCDGHNFQYMEKCL (Tested as clonal phage supernatant) [Phage-1048] was tested, and the “Anti-CD28 Fab signal (phage binding ELISA)” value [6] was 1.44 and the “Anti-CD28 Fab signal in the presence of CD28 (phage binding ELISA)” value [7] was 0.06.

With YCVGHLPQYMQKCL [Phage-1049] the “Anti-CD28 Fab signal in the presence of CD28 (phage binding ELISA)” value [8] was 0.06 and the “Anti-CD28 Fab signal (phage binding ELISA)” value [9] was 1.43.

In the case of YCDGHLPEYIAKCQ [Phage-1050], the “Anti-CD28 Fab signal in the presence of CD28 (phage binding ELISA)” value [8] is reported as 0.07 and the “Anti-CD28 Fab signal (phage binding ELISA)” value [9] is reported as 1.43.

In the case of YCDGHSLEYIEKCL [Phage-1051], the “Anti-CD28 Fab signal in the presence of CD28 (phage binding ELISA)” value [8] is reported as 0.06 and the “Anti-CD28 Fab signal (phage binding ELISA)” value [9] is reported as 1.43.

For YCLGHSWPYIHKCY [Phage-1052], the “Anti-CD28 Fab signal in the presence of CD28 (phage binding ELISA)” value [8] was 0.07 and the “Anti-CD28 Fab signal (phage binding ELISA)” value [9] was 1.43.

With YCDGHLDEYMLKCL [Phage-1053] the “Anti-CD28 Fab signal in the presence of CD28 (phage binding ELISA)” value [8] was 0.06 and the “Anti-CD28 Fab signal (phage binding ELISA)” value [9] was 1.43.

With YCDGHTPEYMWKCL [Phage-1054] the “Anti-CD28 Fab signal in the presence of CD28 (phage binding ELISA)” value [8] was 0.06 and the “Anti-CD28 Fab signal (phage binding ELISA)” value [9] was 1.43.

In the case of YCEGHSQQYMQKCL [Phage-1055], the “Anti-CD28 Fab signal in the presence of CD28 (phage binding ELISA)” value [8] is reported as 0.08 and the “Anti-CD28 Fab signal (phage binding ELISA)” value [9] is reported as 1.42.

YCDGHSPAFIQKCL [Phage-1056] was tested, and the “Anti-CD28 Fab signal in the presence of CD28 (phage binding ELISA)” value [8] was 0.08 and the “Anti-CD28 Fab signal (phage binding ELISA)” value [9] was 1.42.

With YCDGHSLEYIDKCM [Phage-1057] the “Anti-CD28 Fab signal in the presence of CD28 (phage binding ELISA)” value [8] was 0.09 and the “Anti-CD28 Fab signal (phage binding ELISA)” value [9] was 1.42.
